Data as given in US20090208512A1.

Molecular target: human recombinant Factor VIII (human) (UniProt P00451)
Experiment: cell-based or functional assay

UniProt P00451, sequence (P00451 20-2351): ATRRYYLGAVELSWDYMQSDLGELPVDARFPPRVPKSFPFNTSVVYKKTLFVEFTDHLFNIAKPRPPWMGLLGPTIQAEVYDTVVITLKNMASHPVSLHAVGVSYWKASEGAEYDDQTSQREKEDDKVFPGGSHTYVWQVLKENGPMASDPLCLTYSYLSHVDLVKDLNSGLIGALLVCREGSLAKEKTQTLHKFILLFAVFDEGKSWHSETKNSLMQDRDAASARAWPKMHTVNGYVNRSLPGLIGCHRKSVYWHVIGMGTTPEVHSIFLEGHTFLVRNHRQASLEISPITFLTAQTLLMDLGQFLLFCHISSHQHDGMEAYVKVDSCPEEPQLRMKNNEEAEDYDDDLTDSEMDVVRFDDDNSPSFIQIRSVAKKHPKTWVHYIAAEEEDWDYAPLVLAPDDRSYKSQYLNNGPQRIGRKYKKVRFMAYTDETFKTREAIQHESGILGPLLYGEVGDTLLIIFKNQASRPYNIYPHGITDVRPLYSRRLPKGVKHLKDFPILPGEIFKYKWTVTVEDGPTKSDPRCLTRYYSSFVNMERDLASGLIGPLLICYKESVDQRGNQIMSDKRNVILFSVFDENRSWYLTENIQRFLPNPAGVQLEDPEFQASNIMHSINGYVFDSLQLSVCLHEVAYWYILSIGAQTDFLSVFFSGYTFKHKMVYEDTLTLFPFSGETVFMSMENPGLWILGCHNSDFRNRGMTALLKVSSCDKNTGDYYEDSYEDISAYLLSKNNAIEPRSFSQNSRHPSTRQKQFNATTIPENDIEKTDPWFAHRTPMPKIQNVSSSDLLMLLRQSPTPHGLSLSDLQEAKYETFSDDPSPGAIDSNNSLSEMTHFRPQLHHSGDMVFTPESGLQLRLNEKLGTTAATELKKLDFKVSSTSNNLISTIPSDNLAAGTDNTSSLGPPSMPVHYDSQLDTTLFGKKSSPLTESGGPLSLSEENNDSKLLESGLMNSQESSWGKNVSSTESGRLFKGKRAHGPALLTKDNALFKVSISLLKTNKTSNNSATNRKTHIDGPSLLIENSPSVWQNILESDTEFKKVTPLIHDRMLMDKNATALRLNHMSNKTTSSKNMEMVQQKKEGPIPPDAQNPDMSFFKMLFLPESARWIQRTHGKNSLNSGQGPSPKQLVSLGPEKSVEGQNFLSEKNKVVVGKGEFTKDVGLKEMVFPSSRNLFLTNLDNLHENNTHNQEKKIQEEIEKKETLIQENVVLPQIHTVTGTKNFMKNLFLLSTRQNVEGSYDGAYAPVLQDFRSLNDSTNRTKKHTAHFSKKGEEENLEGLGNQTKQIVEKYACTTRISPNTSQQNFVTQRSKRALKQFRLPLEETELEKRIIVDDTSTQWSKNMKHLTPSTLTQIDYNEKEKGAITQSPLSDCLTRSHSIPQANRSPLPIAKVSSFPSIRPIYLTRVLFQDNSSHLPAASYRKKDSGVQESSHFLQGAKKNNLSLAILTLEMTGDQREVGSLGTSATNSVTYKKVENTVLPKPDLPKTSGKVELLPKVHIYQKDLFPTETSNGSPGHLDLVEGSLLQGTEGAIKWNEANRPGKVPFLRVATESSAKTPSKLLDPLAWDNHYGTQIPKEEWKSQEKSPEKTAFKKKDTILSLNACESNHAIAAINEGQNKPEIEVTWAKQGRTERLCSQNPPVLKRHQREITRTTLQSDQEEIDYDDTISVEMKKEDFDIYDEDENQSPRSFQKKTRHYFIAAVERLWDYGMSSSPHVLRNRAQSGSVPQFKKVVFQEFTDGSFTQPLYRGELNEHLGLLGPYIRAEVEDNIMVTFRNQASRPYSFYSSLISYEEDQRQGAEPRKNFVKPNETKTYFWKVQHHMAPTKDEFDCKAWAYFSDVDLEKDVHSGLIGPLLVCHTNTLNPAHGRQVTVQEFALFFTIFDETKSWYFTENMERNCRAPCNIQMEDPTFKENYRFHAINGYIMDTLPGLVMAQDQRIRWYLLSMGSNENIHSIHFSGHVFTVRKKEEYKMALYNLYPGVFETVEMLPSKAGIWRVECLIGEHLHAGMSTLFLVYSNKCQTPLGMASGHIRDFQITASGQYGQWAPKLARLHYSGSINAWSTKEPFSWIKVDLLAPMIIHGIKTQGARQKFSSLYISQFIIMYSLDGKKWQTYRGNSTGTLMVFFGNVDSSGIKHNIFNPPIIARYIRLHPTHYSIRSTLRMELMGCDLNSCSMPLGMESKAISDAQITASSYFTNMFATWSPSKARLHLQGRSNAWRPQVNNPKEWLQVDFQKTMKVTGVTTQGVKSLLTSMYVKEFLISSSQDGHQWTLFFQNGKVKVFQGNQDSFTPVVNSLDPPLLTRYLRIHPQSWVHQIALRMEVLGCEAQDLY

inhibition of hydrolysis of Factor VIII by anti-Factor VIII IgG: 36.9%
Substance: von Willebrand Factor (from UniProt P04275 764-2813)
